# From the nanobody polyreactivity screen of Harvey et al. (2022)
# Assay: yeast display, Sf9 membrane polyspecificity reagent, FACS + sequencing; frameworks hold sequencing errors
# Method in brief: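 Sorting gates, low and high (top ~1%), were placed on anti-HA fluorescence to track expression and on streptavidin fluorescence to track reagent binding. A clone's polyreactivity label is taken from the gate it came out of. The reagent was 10% biotinylated, detergent-solubilized Sf9 membrane, applied for 1 hour at 4 °C to galactose-induced yeast display cells.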
row,Sequence,polyreactivity (PSR sort gate)
1,QVQLVESGGGLVQAGGSLRLSCAASGRTFYSYTMGWYRPAPGKERELVAAINRGGSTYYADSVKGRFTISRDNAKNTVYLQMNSLKPEDTAVYYCAVGYAHSSNRRYYYKKTHGYWGQGTQVTVSS,low polyreactivity
2,QVQLVESGGGLVQAGGSLRLSCAASGRTFYSYVMGWYRQAPGKERELVAAISSTGGTYADSVKGRFTISRDNAKNTVYLQMNSLKPEDTAVYYCAARVHFPYPDYAWITVLYDYWGQGTQVTVSS,low polyreactivity
3,QVQLVESGGGLVQAGGSLRLSCAASGRTFYWNAMGWSIQAPGKERELVASISWSGGRTYYADSVKGRFTISRDNAKNTVYLQMISLKPEDTAVYYCARRYSGTPSTFYYWGQGTLVTVSS,high polyreactivity
4,QVQLVESGGGLVQAGGSLRLSCAASGRTFYWNAMGWYRQAPGKDRDLVASISWSGGRTYYADSVKGRFTISRDNAKNTVYLQMNSLKPEDTAVYYCARRYSGTPSTFYYWGQGTQVNVSS,high polyreactivity
5,QVQLVESGGGLVQAGGSLRLSCAASGRTFYYAMGWYRQAPGKERELVAAISKNGGRTYYADSVKGRFTISRDNAKNTVYLQMNSLKPEDTAVYYCAAAFQRPHSYLYYYWGQGTQVTVSS,high polyreactivity
6,QVQLVESGGGLVQAGGSLRLSCAASGRTFYYAMGWYRQAPVKERYADSVKGRFTISRDNAKNTVYLQMNSLKPEDTAVYYCAAKVPEPPSLDESDYWGQGTQVTVSS,low polyreactivity
7,QVQLVESGGGLVQAGGSLRLSCAASGRTFYYNAMGWYRQAPGKEREFVAAISYGGTTTYYADSVKGRFTISRDNAKNTVYLQMNSLKPEDTAVYYCAAGYTWRQSWYPFDYWGQGSQVTVSS,high polyreactivity
8,QVQLVESGGGLVQAGGSLRLSCAASGRTFYYNAMGWYRQAPGKERELVARISTIGGNTFYADSVKGRFTISRDNAKNTVYLQMNSLKPEDTAVYYCATTGGPSWRKYDYWGQGTQVTVSS,high polyreactivity
9,QVQLVESGGGLVQAGGSLRLSCAASGRTFYYNAMGWYRQAPGKERELVARITSSGGSTYYADSVKGRFTISRDNAKNTVYLQMNSLKPEDTAVYYCAAGRSRYLWFGRDFDYWGQGTQVTVSS,low polyreactivity
10,QVQLVESGGGLVQAGGSLRLSCAASGRTFYYNTMGRNIPAPGKERELVATISRIGGSTYYADSVKGRFTISRDNAKNTVYLQMNSLKPEDTAVYYCAKGRSLNGRPPVVYWQLFYYWGQGTEVTVSS,high polyreactivity
11,QVQLVESGGGLVQAGGSLRLSCAASGRTFYYNVMGWYRQAPGKERELVAAISTGVSTNYADSVKGRFTISRDNAKNTVYLQMNSLKPEDTAVYYCNARSYRWYRPVYRYDYWGQGTQVNVSS,high polyreactivity
12,QVQLVESGGGLVQAGGSLRLSCAASGRTFYYYAMGSYRQAPGKEREFVAAITTRGGSTYYADSVKGRFTISRDNAKNTVYLQMNSLKPEDTAVYYCAARSYYQGGYYYWGQGTQVTVSS,high polyreactivity
13,QVQLVESGGGLVQAGGSLRLSCAASGRTFYYYAMGWYRPAPGKERELVAAITSRGGSTYYADSVTGRFTISRDNAKNTVYLQMNSLKPEDTAVYYCAAEYWSTYWQSELDYWGQGTQVTVSS,high polyreactivity
14,QVQLVESGGGLVQAGGSLRLSCAASGRTFYYYAMGWYRQAHGKERELVAAISTNGGSTYYADSVKGRFTISRDNAKNTVYLQMNSLKPEDTAVYYCNTYAKPHRSGGGLGGHYYWGQGTQVTLSS,low polyreactivity
15,QVQLVESGGGLVQAGGSLRLSCAASGRTFYYYAMGWYRQAPGKEREFVASISYSGARTYYADSVKGRFTISRDNAKNTVYLQMNSLKPEETAVYYCAAGYPLGGDYWGQGTQVTVSS,high polyreactivity
16,QVQLVESGGGLVQAGGSLRLSCAASGRTFYYYAMGWYRQAPGKERELVAGIDFSSGSTYYADSVKGRFTISRDNAKNTVYLQMNSLKPEDTAVYYCAAKWHVRGRGARYRYDYDYWGQGTQVTVSS,low polyreactivity
17,QVQLVESGGGLVQAGGSLRLSCAASGRTFYYYAMGWYRQAPGKERELVARIRSGGSTNYADSVKGRFTISRDNAKNTVYLQMNSLKPEDTAVYYCNALGAKGYVKGFDYWGQGTQVTVSS,low polyreactivity
18,QVQLVESGGGLVQAGGSLRLSCAASGRTFYYYAMGWYRQAPGKERELVATITKSSGSTSYADSVKGRFTISRDNAKNTVYLQMNSLKPEDTAVYYCAKVFRSGGVYRYDYWGQGTQVTVSS,high polyreactivity
19,QVQLVESGGGLVQAGGSLRLSCAASGRTFYYYAMGWYRQAPGKERELVAVIRFSDGSTYYADSVKGRFTISRDNAKNTVYLQMNSLKPEDTAVYYCAAKGPRRWGSGFDYWGQGTQVTVSS,low polyreactivity
20,QVQLVESGGGLVQAGGSLRLSCAASGRTFYYYGMGWYRQAPGKERELVASITNGGNTNYADSVKGRFTISRDNAKNTVYLQMNSLKPEDTAVYYCAKDVPYWRPVVRYDYWGQGTQVTVSS,low polyreactivity
21,QVQLVESGGGLVQAGGSLRLSCAASGRTFYYYGMGWYRQAPGKERELVASITNGGNTNYADSVKGRFTISRDNAKYTVYLQMNSLKPEDTAVYYCAKDVPYWRPVVRYDYWGQGTQVTVSS,low polyreactivity
22,QVQLVESGGGLVQAGGSLRLSCAASGRTHIYAMGWYRQAPGKERELVAGISRSGTRTYYADSVKGRFTISRDNAKNTVYLQMNSLKPEDSAVYYCNAQAYYQGYDYWGQGTQVTVSS,high polyreactivity

row,Sequence,polyreactivity (PSR sort gate)
1,QVQLVESGGGLVQAGGSLRLSCAASGRTIAINAMGWYRQAPGKEREFVAAITSRSSRTYYADSVKGRFTISRDNAKNTVYLQMNSLKPEDTAVYYCARGSELGYYAWVYYWGQGTQVTVSS,high polyreactivity
2,QVQLVESGGGLVQAGGSLRLSCAASGRTIGIYARGWYRQAPVKERELVADITIGGSTYYADSVKGRFTISRDNAKNTVFIQINSLKPEDTAVYYCAARNPGYTRTGRRYDSWGQGTQVTVSS,low polyreactivity
3,QVQLVESGGGLVQAGGSLRLSCAASGRTIIRNTMGWYRQAPGKERELVARISYGGGRTYYADSVKGRFTISRDNAKNTVYLQMNSLKPEDTAVYYCAKVTPPFWGGYWYNYWGQGTQVTVSS,high polyreactivity
4,QVQLVESGGGLVQAGGSLRLSCAASGRTIIYNTMGWSRQAPGKEREFVAAINWSGGSTYYADSVKGCFTISRDNAKNTVYLQMNSLKPEDTAVYYCNAEAGYYRPLIYDYWGQGTQVTVSS,low polyreactivity
5,QVQLVESGGGLVQAGGSLRLSCAASGRTIIYNTMGWYRQAPGKEREFVAAINWSGGSTYYADSVKGRFTISRDNAKNTVYLQMNSLKPEDTAVYYCNAEAGYYRPLIYDYWGQGTQVTVSS,low polyreactivity
6,QVQLVESGGGLVQAGGSLRLSCAASGRTIKYYDMGWYRQAPGKERELVADISGRGGSTYYADSVKGRFTISRDNAKNTVYLQMNSLIPEDTAVYYCNAEWFTSSYAHYGMEHWGQGTQVTVSS,low polyreactivity
7,QVQLVESGGGLVQAGGSLRLSCAASGRTINRYAMGWYRQAPGKESELVASINKSGTSTYYADAVKGRFTISRDNAKNTVYLQMNCLKPEDTGVYYWKTRYFWCSTYDYWGQGTEVTVSS,high polyreactivity
8,QVQLVESGGGLVQAGGSLRLSCAASGRTIPTYVMGWYRQAPGKERELVASIRSGGRTKYADSVKGRFTISRDNAKNTVYLQMNSLKPEDTAVYYCAADYHGSPEYDYWGQGTQVTVSS,low polyreactivity
9,QVQLVESGGGLVQAGGSLRLSCAASGRTIQYYAMGWYRQAPGKERELVAAITRSGGRTYYADSVKGRFTISRDNAKNTVYLQMNSLKPEDTAVYYCARVSSSVHVDYDYWGQGTQVTVSS,high polyreactivity
10,QVQLVESGGGLVQAGGSLRLSCAASGRTIRSYAMGWYRQAPGKERELVAAITGSGGRTYYADSVKGRFTISRDNAKNTVYLQMNSLKPEDTAVYYCAARLRGSYDYWGQGTQVTVSS,high polyreactivity
11,QVQLVESGGGLVQAGGSLRLSCAASGRTIRYYAMGWYRQAPGKERELVAAITQNGGRTYYADSVKGRFTISRDNAKNTVYLQMNSLKPEDTAVYYCAKAFIQPGYKYDSWGQGTQVTVSS,high polyreactivity
12,QVQLVESGGGLVQAGGSLRLSCAASGRTIRYYAMGWYRQAPGKERELVAAITVTVTSTFYADSVKGRFTISRDDAKNTVYLQMNSLKPEDTAVYYCAKVDRQSPGQYYYWGQGSQVTVSS,low polyreactivity
13,QVQLVESGGGLVQAGGSLRLSCAASGRTISRNTMGWYRQAPGKERELVAGITYGGDRTYYADSVKGRFTISRDNAKNTVYLQMNSLKPEDTAVYYCAAPWYWKGLRDYWGQGTQVNVSS,low polyreactivity
14,QVQLVESGGGLVQAGGSLRLSCAASGRTISVYGMGWSRQAPGKERELVASITWRGGTTYYADSVKGRFTISRDNAKNSVYLQMNRLKPEDTAVYYCAAYWPYTTYRYRYDYWGQGTQVTVSS,high polyreactivity
15,QVQLVESGGGLVQAGGSLRLSCAASGRTISWYVMGWYRQAPGKERELVAAISWNGGRTYYADSVKGRFTISRDNAKNTVYLQMNSLKPEDTAVYYCAAKNYHGYPFDYWGQGTQVTVSS,high polyreactivity
16,QVQLVESGGGLVQAGGSLRLSCAASGRTISYAMGWYRQAPGKERELVAAIRYRGGSTYYADSVKGRFTISRDNAKNTVYLQMNSLKPEDTADYYCDAQDSYTPPILFRRGYLRYDYWGQGTQVTVSS,low polyreactivity
17,QVQLVESGGGLVQAGGSLRLSCAASGRTIVAYAMGWYRQAPGKERELVAAISWSTGSTYYADSVKGRFTISRDNAKNTVYLQMNSLKPEDTAVYYCAGLVWAPRDYWGQGTQVTVSS,low polyreactivity
18,QVQLVESGGGLVQAGGSLRLSCAASGRTIVLYVMGWYRQAPGKEREFVADINAGGGSTYYADSVKGRFTISRDNAKNTVYLQMNSLKPEDTSVYYCAATRDLGQLFRFGYWGQSTQVTVSS,low polyreactivity
19,QVQLVESGGGLVQAGGSLRLSCAASGRTIVYYAMGWYRQAPGKERDFVAAISRSGGRTSYADSVKGRFTISRDNAKNTVYLQMNSLKPEDTAVYYCAAEKRTQPTSREYYWGQGTQVTVSS,high polyreactivity
20,QVQLVESGGGLVQAGGSLRLSCAASGRTIWWYAMGWYRQAPGKERELVAAITWIGGSTYYADSVKGRFTISRDNAKNTVYLQMNSLKPEDTAVYYCATDKDDVSDLGKDYAYFEYDYWGQGTQVTVSS,low polyreactivity
21,QVQLVESGGGLVQAGGSLRLSCAASGRTIYQYAKGWYRPAPGKERELVAAISRGGSTNYADSLKGRFTISRDNAKNTVLLQLNSLKPEDTAVYDCASWYKCLSLKRLYERDYWGHGTQVTVSS,high polyreactivity
